Measurements: patent US20260217779A1 (Chugai, published 2026)
Positions count from the first letter of the chain named. Numbers in names are those of the source.

T1: human CXCR3 (hCXCR3) on Ba/F3 transfectant cells (human, UniProt P49682 1-368)
T1 sequence: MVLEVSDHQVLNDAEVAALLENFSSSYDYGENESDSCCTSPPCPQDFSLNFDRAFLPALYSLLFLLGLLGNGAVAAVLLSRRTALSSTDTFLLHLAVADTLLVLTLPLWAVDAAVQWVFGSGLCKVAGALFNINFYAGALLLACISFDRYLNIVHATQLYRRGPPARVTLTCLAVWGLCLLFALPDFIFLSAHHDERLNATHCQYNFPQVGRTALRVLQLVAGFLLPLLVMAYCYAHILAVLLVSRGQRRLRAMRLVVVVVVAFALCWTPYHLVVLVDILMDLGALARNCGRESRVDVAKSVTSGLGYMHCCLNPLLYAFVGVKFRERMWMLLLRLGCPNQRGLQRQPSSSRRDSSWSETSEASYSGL

B1: hCXCL11-G1T4k.one//VHn-G1T4h.one.H435R (Fc fusion)
chain 1: FPMFKRGRCLCIGPGVKAVKVADIEKASIMYPSNNCDKIEVIITLKENKGQRCLNPKSKQARLIIKKVERKNFEPKSSDKTHTCPPCPAPELRRGPSVFLFPPKPKDTLMISRTPEVTCVVVDVSHEDPEVKFNWYVDGVEVHNAKTKPREEQYNSTYRVVSVLTVLHQDWLNGKEYKCKVSNKGLPSSIEKTISKAKGQPREPQVCTLPPSREEMTKNQVSLWCLVKGFYPSDIAVEWESNGQPENNYKTTPPVLDSDGSFFLYSKLTVDKSRWQEGNVFSCSVMHEALHNHYTQKSLSLSP
chain 2: EPKSSDKTHTCPPCPAPELRRGPSVFLFPPKPKDTLMISRTPEVTCVVVDVSHEDPEVKFNWYVDGVEVHNAKTKPREEQYNSTYRVVSVLTVLHQDWLNGKEYKCKVSNKGLPSSIEKTISKAKGQPREPQVYTLPPSRCEMTKNQVSLSCAVKGFYPSDIAVEWESNGQPENNYKTTPPVLDSDGSFFLVSKLTVDKSRWQEGNVFSCSVMHEALHNRYTQKSLSLSP
B2: hCXCL11.0023-G1T4k.one//VHn-G1T4h.one.H435R (Fc fusion)
chain 1: EFPMFKRGRCLCIGPGVKAVKVADIEKASIMYPSNNCDKIEVIITLKENKGQRCLNPKSKQARLIIKKVERKNFEPKSSDKTHTCPPCPAPELRRGPSVFLFPPKPKDTLMISRTPEVTCVVVDVSHEDPEVKFNWYVDGVEVHNAKTKPREEQYNSTYRVVSVLTVLHQDWLNGKEYKCKVSNKGLPSSIEKTISKAKGQPREPQVCTLPPSREEMTKNQVSLWCLVKGFYPSDIAVEWESNGQPENNYKTTPPVLDSDGSFFLYSKLTVDKSRWQEGNVFSCSVMHEALHNHYTQKSLSLSP
chain 2: B1 chain 2
B3: hCXCL11.0009-G1T4k.one//VHn-G1T4h.one.H435R (Fc fusion)
chain 1: B1 chain 1 with P2I
chain 2: B1 chain 2
B4: hCXCL11.0008-G1T4k.one//VHn-G1T4h.one.H435R (Fc fusion)
chain 1: B1 chain 1 with P2H
chain 2: B1 chain 2
B5: hCXCL11.0015-G1T4k.one//VHn-G1T4h.one.H435R (Fc fusion)
chain 1: B1 chain 1 with P2R
chain 2: B1 chain 2
B6: hCXCL11.0021-G1T4k.one//VHn-G1T4h.one.H435R (Fc fusion)
chain 1: B2 chain 1 with E1A
chain 2: B1 chain 2
B7: hCXCL11.0003-G1T4k.one//VHn-G1T4h.one.H435R (Fc fusion)
chain 1: B1 chain 1 with P2A
chain 2: B1 chain 2
B8: hCXCL11.0004-G1T4k.one//VHn-G1T4h.one.H435R (Fc fusion)
chain 1: B1 chain 1 with P2D
chain 2: B1 chain 2
B9: hCXCL11.0007-G1T4k.one//VHn-G1T4h.one.H435R (Fc fusion)
chain 1: B1 chain 1 with P2G
chain 2: B1 chain 2
B10: hCXCL11.0011-G1T4k.one//VHn-G1T4h.one.H435R (Fc fusion)
chain 1: B1 chain 1 with P2L
chain 2: B1 chain 2
B11: hCXCL11.0017-G1T4k.one//VHn-G1T4h.one.H435R (Fc fusion)
chain 1: B1 chain 1 with P2T
chain 2: B1 chain 2
B12: hCXCL11.0019-G1T4k.one//VHn-G1T4h.one.H435R (Fc fusion)
chain 1: B1 chain 1 with P2W
chain 2: B1 chain 2
B13: hCXCL11.0013-G1T4k.one//VHn-G1T4h.one.H435R (Fc fusion)
chain 1: B1 chain 1 with P2N
chain 2: B1 chain 2
B14: hCXCL11.0022-G1T4k.one//VHn-G1T4h.one.H435R (Fc fusion)
chain 1: B2 chain 1 with E1D
chain 2: B1 chain 2
B15: hCXCL11.0006-G1T4k.one//VHn-G1T4h.one.H435R (Fc fusion)
chain 1: B1 chain 1 with P2F
chain 2: B1 chain 2
B16: hCXCL11.0018-G1T4k.one//VHn-G1T4h.one.H435R (Fc fusion)
chain 1: B1 chain 1 with P2V
chain 2: B1 chain 2
B17: hCXCL11.0020-G1T4k.one//VHn-G1T4h.one.H435R (Fc fusion)
chain 1: B1 chain 1 with P2Y
chain 2: B1 chain 2
B18: hCXCL11.0014-G1T4k.one//VHn-G1T4h.one.H435R (Fc fusion)
chain 1: B1 chain 1 with P2Q
chain 2: B1 chain 2
B19: hCXCL11.0016-G1T4k.one//VHn-G1T4h.one.H435R (Fc fusion)
chain 1: B1 chain 1 with P2S
chain 2: B1 chain 2
B20: hCXCL11.0005-G1T4k.one//VHn-G1T4h.one.H435R (Fc fusion)
chain 1: B1 chain 1 with P2E
chain 2: B1 chain 2
B21: hCXCL11.0012-G1T4k.one//VHn-G1T4h.one.H435R (Fc fusion)
chain 1: B1 chain 1 with P2M
chain 2: B1 chain 2
B22: hCXCL11.0010-G1T4k.one//VHn-G1T4h.one.H435R (Fc fusion)
chain 1: B1 chain 1 with P2K
chain 2: B1 chain 2

What follows are binders tested against T1, human CXCR3 (hCXCR3) on Ba/F3 … (assay: cell-based or functional assay).

Going from B1 to B2, the “Luminescence value at 33 nM” value rises from 7.68e+06 to 1.45e+07.

Compared with B3, B4 is higher in “Luminescence value at 33 nM” value: 966000 for the first, 3.4e+06 for the second.

Going from B5 to B6, the “Luminescence value at 33 nM” value rises from 2.62e+06 to 8.26e+06.

First: B7
Second: B8
The “Luminescence value at 33 nM” value of the first is higher: 3.76e+06 for the first, 3.15e+06 for the second.

Compared with B9, B10 is lower in “Luminescence value at 33 nM” value: 3.47e+06 for the first, 262000 for the second.

Compared with B11, B12 is lower in “Luminescence value at 33 nM” value: 4.72e+06 for the first, 325000 for the second.

First: B13
Second: B14
The “Luminescence value at 33 nM” value of the first is lower: 5.49e+06 for the first, 1.37e+07 for the second.

Compared with B15, B16 is higher in “Luminescence value at 33 nM” value: 326000 for the first, 1.85e+06 for the second.

First: B17
Second: B18
The “Luminescence value at 33 nM” value of the first is lower: 2.15e+06 for the first, 8.07e+06 for the second.

First: B19
Second: B20
The “Luminescence value at 33 nM” value of the first is higher: 4.95e+06 for the first, 3.11e+06 for the second.

First: B21
Second: B22
The “Luminescence value at 33 nM” value of the first is higher: 1.33e+06 for the first, 524000 for the second.

Going from B1 to B2, the “Luminescence value at 100 nM” value falls from 1.67e+07 to 1.64e+07.

Compared with B3, B4 is higher in “Luminescence value at 100 nM” value: 6.79e+06 for the first, 1.22e+07 for the second.

Compared with B5, B6 is higher in “Luminescence value at 100 nM” value: 1.23e+07 for the first, 1.56e+07 for the second.

First: B7
Second: B8
The “Luminescence value at 100 nM” value of the first is higher: 1.17e+07 for the first, 9.44e+06 for the second.

First: B9
Second: B10
The “Luminescence value at 100 nM” value of the first is higher: 1.02e+07 for the first, 4.02e+06 for the second.

Going from B11 to B12, the “Luminescence value at 100 nM” value falls from 1.24e+07 to 4.66e+06.

Compared with B13, B14 is higher in “Luminescence value at 100 nM” value: 1.31e+07 for the first, 1.48e+07 for the second.

Compared with B15, B16 is higher in “Luminescence value at 100 nM” value: 4.55e+06 for the first, 8.32e+06 for the second.

First: B17
Second: B18
The “Luminescence value at 100 nM” value of the first is lower: 1.03e+07 for the first, 1.48e+07 for the second.

Compared with B19, B20 is lower in “Luminescence value at 100 nM” value: 1.25e+07 for the first, 9.59e+06 for the second.

Going from B21 to B22, the “Luminescence value at 100 nM” value falls from 7.6e+06 to 4.93e+06.

First: B1
Second: B2
The “Luminescence value at 300 nM” value of the first is higher: 1.24e+07 for the first, 5.98e+06 for the second.

First: B3
Second: B4
The “Luminescence value at 300 nM” value of the first is higher: 1.35e+07 for the first, 1.34e+07 for the second.

First: B5
Second: B6
The “Luminescence value at 300 nM” value of the first is higher: 1.22e+07 for the first, 1.04e+07 for the second.

First: B7
Second: B8
The “Luminescence value at 300 nM” value of the first is higher: 1.12e+07 for the first, 5.24e+06 for the second.

Going from B9 to B10, the “Luminescence value at 300 nM” value falls from 9.71e+06 to 9.6e+06.

Going from B11 to B12, the “Luminescence value at 300 nM” value rises from 8.54e+06 to 1.15e+07.

Going from B13 to B14, the “Luminescence value at 300 nM” value falls from 1.01e+07 to 6.06e+06.

First: B15
Second: B16
The “Luminescence value at 300 nM” value of the first is lower: 9.79e+06 for the first, 1.01e+07 for the second.

Compared with B17, B18 is lower in “Luminescence value at 300 nM” value: 1.18e+07 for the first, 7.51e+06 for the second.

Compared with B19, B20 is lower in “Luminescence value at 300 nM” value: 8.57e+06 for the first, 6.03e+06 for the second.

Compared with B21, B22 is lower in “Luminescence value at 300 nM” value: 1.18e+07 for the first, 7.78e+06 for the second.

Going from B2 to B3, the “Activity retention rate at 33 nM” value falls from 189% to 13%.

First: B4
Second: B5
The “Activity retention rate at 33 nM” value of the first is higher: 44% for the first, 34% for the second.

First: B6
Second: B7
The “Activity retention rate at 33 nM” value of the first is higher: 108% for the first, 49% for the second.

Going from B8 to B9, the “Activity retention rate at 33 nM” value rises from 41% to 45%.

Going from B10 to B11, the “Activity retention rate at 33 nM” value rises from 3% to 61%.

Going from B12 to B13, the “Activity retention rate at 33 nM” value rises from 4% to 71%.

First: B14
Second: B15
The “Activity retention rate at 33 nM” value of the first is higher: 178% for the first, 4% for the second.

Going from B16 to B17, the “Activity retention rate at 33 nM” value rises from 24% to 28%.

First: B18
Second: B19
The “Activity retention rate at 33 nM” value of the first is higher: 105% for the first, 65% for the second.

Compared with B20, B21 is lower in “Activity retention rate at 33 nM” value: 40% for the first, 17% for the second.

B22 was tested, and the “Activity retention rate at 33 nM” value was 7%.

Going from B2 to B3, the “Activity retention rate at 100 nM” value falls from 98% to 41%.

B4 and B5 are the same in “Activity retention rate at 100 nM” value: 73% for the first, 73% for the second.

Compared with B6, B7 is lower in “Activity retention rate at 100 nM” value: 93% for the first, 70% for the second.

Going from B8 to B9, the “Activity retention rate at 100 nM” value rises from 57% to 61%.

Compared with B10, B11 is higher in “Activity retention rate at 100 nM” value: 24% for the first, 74% for the second.

Compared with B12, B13 is higher in “Activity retention rate at 100 nM” value: 28% for the first, 78% for the second.

Going from B14 to B15, the “Activity retention rate at 100 nM” value falls from 89% to 27%.

Compared with B16, B17 is higher in “Activity retention rate at 100 nM” value: 50% for the first, 62% for the second.

Compared with B18, B19 is lower in “Activity retention rate at 100 nM” value: 89% for the first, 75% for the second.

Compared with B20, B21 is lower in “Activity retention rate at 100 nM” value: 57% for the first, 46% for the second.

B22 was tested, and the “Activity retention rate at 100 nM” value was 30%.

Going from B2 to B3, the “Activity retention rate at 300 nM” value rises from 48% to 109%.

Compared with B4, B5 is lower in “Activity retention rate at 300 nM” value: 108% for the first, 98% for the second.

Going from B6 to B7, the “Activity retention rate at 300 nM” value rises from 84% to 90%.

Compared with B8, B9 is higher in “Activity retention rate at 300 nM” value: 42% for the first, 78% for the second.

Going from B10 to B11, the “Activity retention rate at 300 nM” value falls from 77% to 69%.

Going from B12 to B13, the “Activity retention rate at 300 nM” value falls from 93% to 81%.

Compared with B14, B15 is higher in “Activity retention rate at 300 nM” value: 49% for the first, 79% for the second.

Compared with B16, B17 is higher in “Activity retention rate at 300 nM” value: 81% for the first, 95% for the second.

First: B18
Second: B19
The “Activity retention rate at 300 nM” value of the first is lower: 60% for the first, 69% for the second.

Going from B20 to B21, the “Activity retention rate at 300 nM” value rises from 49% to 95%.

For B22, the “Activity retention rate at 300 nM” value was 63%.
